Results on one molecule are retold here after patent US20100104557A1.

Assay [1] deals with His-tagged HM1.24 antigen, residues N49-A163 of the extracellular domain (human) (UniProt Q10589). The assay is described as follows: Biacore (SPR): His-tagged HM1.24 antigen coupled directly to the chip (NHS chemistry), antibody as analyte; separate kd and ka fitting. (Surface plasmon resonance follows binding to a sensor surface in real time, without labels.)
The target is the same in assay [2]. Briefly: Biacore (SPR): antibody on a protein A chip, HM1.24 antigen as analyte; antibody post incubation (pH 9, 37 C, 4 days).
Assay [3] shares this target. The assay is described as follows: Biacore (SPR): His-tagged HM1.24 antigen coupled directly to the chip (NHS chemistry), antibody as analyte; simultaneous (global Langmuir) fitting.
Assay [4] has the same target. The assay is described as follows: Biacore (SPR): antibody on a protein A chip, HM1.24 antigen as analyte; antibody untreated.

His-tagged HM1.24 antigen, residues N49-A163 of the extracellular domain (human), sequence (Q10589 49-163): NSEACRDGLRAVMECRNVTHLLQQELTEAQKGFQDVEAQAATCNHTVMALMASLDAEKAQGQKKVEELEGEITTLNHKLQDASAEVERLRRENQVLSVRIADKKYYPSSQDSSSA

B1: Antibody comprising the HM1.24_H2.2 heavy chain variant and the HM1.24_L4 light chain (antibody, V domains shown)
VH: EVQLVESGGGLVKPGGSLRLSCAASGYTFTPYWMQWVRQAPGKGLEWMGSIFPGSGDTRYSQSFQGQVTISADKSISTAYMELSSLRSEDTAVYYCARGLRRGGYYFDYWGQGTLVTVSS
VL: DIVMTQSPLSLPVTLGQPASISCKASQDVNTAVAWYLQKPGKSPKLLIYSASNRYTGVPDRITGSGSGTDFTLKISRVEAEDVGVYYCQQHYSTPFTFGSGTKLEIKR
For orientation: Kd means the constant that tells how readily two partners part at equilibrium. By koff is commonly meant the first-order rate constant of dissociation. As a reminder, the kon is the second-order rate constant of association. Higher therefore signals fast association. Consider B1, for which the Kd in assay [1] is 0.0732 nM; in assay [3] it was 0.0826 nM. Moreover, the koff in assay [1] amounted to 7.02e-05 s⁻¹; in assay [2] it was 0.00257 s⁻¹; in assay [3], 7.27e-05 s⁻¹; in assay [4], 0.00287 s⁻¹. For the same molecule, the kon came out at 958000 M⁻¹ s⁻¹ in assay [1] and 879000 M⁻¹ s⁻¹ in assay [3].
